Test results reported in patent US20260242735A1.

What was measured:
[1] = target: human CD33 A217S (human) (UniProt P20138); assay: alanine scan, flow cytometry
[2] = target: human CD33 A255S (human) (UniProt P20138); assay: alanine scan, flow cytometry
[3] = target: human CD33 A261S (human) (UniProt P20138); assay: alanine scan, flow cytometry
[4] = target: human CD33 E252A (human) (UniProt P20138); assay: alanine scan, flow cytometry
[5] = target: human CD33 G207A (human) (UniProt P20138); assay: alanine scan, flow cytometry
[6] = target: human CD33 G220A (human) (UniProt P20138); assay: alanine scan, flow cytometry
[7] = target: human CD33 G260A (human) (UniProt P20138); assay: alanine scan, flow cytometry
Sequence of human CD33 G260A (human) (P20138 18-364 G260A limits assumed): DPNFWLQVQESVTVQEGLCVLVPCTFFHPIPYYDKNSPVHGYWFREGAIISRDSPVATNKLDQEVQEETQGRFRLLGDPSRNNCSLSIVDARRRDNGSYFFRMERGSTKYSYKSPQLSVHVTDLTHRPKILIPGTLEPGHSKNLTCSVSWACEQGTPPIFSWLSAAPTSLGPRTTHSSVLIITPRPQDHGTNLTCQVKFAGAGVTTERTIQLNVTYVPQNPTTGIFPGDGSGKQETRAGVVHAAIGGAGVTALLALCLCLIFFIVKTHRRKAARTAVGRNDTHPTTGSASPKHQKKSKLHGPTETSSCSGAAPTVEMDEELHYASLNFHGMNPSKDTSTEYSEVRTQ

[8] = target: human CD33 G266A (human) (UniProt P20138); assay: alanine scan, flow cytometry
[9] = target: human CD33 L229A (human) (UniProt P20138); assay: alanine scan, flow cytometry
[10] = target: human CD33 N237A (human) (UniProt P20138); assay: alanine scan, flow cytometry
Sequence of human CD33 N237A (human) (P20138 18-364 N237A limits assumed): as the sequence (P20138 18-364 G260A limits assumed) above, with N220A, A243G counted along it

[11] = target: human CD33 Q204A (human) (UniProt P20138); assay: alanine scan, flow cytometry
Sequence of human CD33 Q204A (human) (P20138 18-364 Q204A limits assumed): as the sequence (P20138 18-364 G260A limits assumed) above, with Q187A, A243G counted along it

[12] = target: human CD33 T208A (human) (UniProt P20138); assay: alanine scan, flow cytometry
[13] = target: human CD33 T222A (human) (UniProt P20138); assay: alanine scan, flow cytometry
[14] = target: human CD33 T253A (human) (UniProt P20138); assay: alanine scan, flow cytometry
[15] = target: human CD33 V196A (human) (UniProt P20138); assay: alanine scan, flow cytometry
Sequence of human CD33 V196A (human) (P20138 18-364 V196A limits assumed): as the sequence (P20138 18-364 G260A limits assumed) above, with V179A, A243G counted along it

[16] = target: human CD33 V214A (human) (UniProt P20138); assay: alanine scan, flow cytometry
[17] = target: human CD33 V221A (human) (UniProt P20138); assay: alanine scan, flow cytometry
[18] = target: human CD33 V234A (human) (UniProt P20138); assay: alanine scan, flow cytometry
[19] = target: human CD33 V258A (human) (UniProt P20138); assay: alanine scan, flow cytometry
[20] = target: human CD33 A293S (human) (UniProt P20138); assay: flow cytometry, HEK293-T, alanine scan
Sequence of human CD33 A293S (human) (P20138 18-364 A293S limits assumed): as the sequence (P20138 18-364 G260A limits assumed) above, with A243G, A276S counted along it

[21] = target: human CD33 A306S (human) (UniProt P20138); assay: flow cytometry, HEK293-T, alanine scan
Sequence of human CD33 A306S (human) (P20138 18-364 A306S limits assumed): as the sequence (P20138 18-364 G260A limits assumed) above, with A243G, A289S counted along it

[22] = target: human CD33 A329S (human) (UniProt P20138); assay: flow cytometry, HEK293-T, alanine scan
[23] = target: human CD33 A341S (human) (UniProt P20138); assay: flow cytometry, HEK293-T, alanine scan
[24] = target: human CD33 C274A (human) (UniProt P20138); assay: flow cytometry, HEK293-T, alanine scan
Sequence of human CD33 C274A (human) (P20138 18-364 C274A limits assumed): as the sequence (P20138 18-364 G260A limits assumed) above, with A243G, C257A counted along it

[25] = target: human CD33 D298A (human) (UniProt P20138); assay: flow cytometry, HEK293-T, alanine scan
[26] = target: human CD33 D335A (human) (UniProt P20138); assay: flow cytometry, HEK293-T, alanine scan
[27] = target: human CD33 E337A (human) (UniProt P20138); assay: flow cytometry, HEK293-T, alanine scan
[28] = target: human CD33 F279A (human) (UniProt P20138); assay: flow cytometry, HEK293-T, alanine scan
Sequence of human CD33 F279A (human) (P20138 18-364 F279A limits assumed): as the sequence (P20138 18-364 G260A limits assumed) above, with A243G, F262A counted along it

[29] = target: human CD33 F345A (human) (UniProt P20138); assay: flow cytometry, HEK293-T, alanine scan
[30] = target: human CD33 G295A (human) (UniProt P20138); assay: flow cytometry, HEK293-T, alanine scan
[31] = target: human CD33 G304A (human) (UniProt P20138); assay: flow cytometry, HEK293-T, alanine scan
Sequence of human CD33 G304A (human) (P20138 18-364 G304A limits assumed): as the sequence (P20138 18-364 G260A limits assumed) above, with A243G, G287A counted along it

[32] = target: human CD33 G318A (human) (UniProt P20138); assay: flow cytometry, HEK293-T, alanine scan
[33] = target: human CD33 G327A (human) (UniProt P20138); assay: flow cytometry, HEK293-T, alanine scan
Sequence of human CD33 G327A (human) (P20138 18-364 G327A limits assumed): as the sequence (P20138 18-364 G260A limits assumed) above, with A243G, G310A counted along it

[34] = target: human CD33 H300A (human) (UniProt P20138); assay: flow cytometry, HEK293-T, alanine scan
Sequence of human CD33 H300A (human) (P20138 18-364 H300A limits assumed): as the sequence (P20138 18-364 G260A limits assumed) above, with A243G, H283A counted along it

[35] = target: human CD33 K288A (human) (UniProt P20138); assay: flow cytometry, HEK293-T, alanine scan
[36] = target: human CD33 K309A (human) (UniProt P20138); assay: flow cytometry, HEK293-T, alanine scan
[37] = target: human CD33 L277A (human) (UniProt P20138); assay: flow cytometry, HEK293-T, alanine scan
Sequence of human CD33 L277A (human) (P20138 18-364 L277A limits assumed): as the sequence (P20138 18-364 G260A limits assumed) above, with A243G, L260A counted along it

[38] = target: human CD33 L316A (human) (UniProt P20138); assay: flow cytometry, HEK293-T, alanine scan
[39] = target: human CD33 L343A (human) (UniProt P20138); assay: flow cytometry, HEK293-T, alanine scan
[40] = target: human CD33 M334A (human) (UniProt P20138); assay: flow cytometry, HEK293-T, alanine scan
[41] = target: human CD33 P301A (human) (UniProt P20138); assay: flow cytometry, HEK293-T, alanine scan
[42] = target: human CD33 P330A (human) (UniProt P20138); assay: flow cytometry, HEK293-T, alanine scan
[43] = target: human CD33 Q311A (human) (UniProt P20138); assay: flow cytometry, HEK293-T, alanine scan
[44] = target: human CD33 R287A (human) (UniProt P20138); assay: flow cytometry, HEK293-T, alanine scan
[45] = target: human CD33 S314A (human) (UniProt P20138); assay: flow cytometry, HEK293-T, alanine scan
[46] = target: human CD33 S323A (human) (UniProt P20138); assay: flow cytometry, HEK293-T, alanine scan
[47] = target: human CD33 T302A (human) (UniProt P20138); assay: flow cytometry, HEK293-T, alanine scan
[48] = target: human CD33 T320A (human) (UniProt P20138); assay: flow cytometry, HEK293-T, alanine scan
Sequence of human CD33 T320A (human) (P20138 18-364 T320A limits assumed): as the sequence (P20138 18-364 G260A limits assumed) above, with A243G, T303A counted along it

Sequence of human CD33 A217S (human) (P20138 18-364 A217S limits assumed): as the sequence (P20138 18-364 G260A limits assumed) above, with A200S, A243G counted along it

For Refmab #7 (WM53) (antibody), which Mean % WT Binding [1] is on record?
The Mean % WT Binding was 114 % WT binding.

What about the Mean % WT Binding [2] of the same substance?
The Mean % WT Binding was 121 % WT binding.

And the Mean % WT Binding [3]?
The Mean % WT Binding was 102 % WT binding.

What about the Mean % WT Binding [4] of the same substance?
Its Mean % WT Binding is 120 % WT binding.

And the Mean % WT Binding [5]?
Its Mean % WT Binding is 104 % WT binding.

What about the Mean % WT Binding [6] of the same substance?
Its Mean % WT Binding is 120 % WT binding.

And the Mean % WT Binding [7]?
The Mean % WT Binding was 87.2 % WT binding.

And the Mean % WT Binding [8]?
Its Mean % WT Binding is 110 % WT binding.

What about the Mean % WT Binding [9] of the same substance?
The Mean % WT Binding was 114 % WT binding.

What about the Mean % WT Binding [10] of the same substance?
The Mean % WT Binding was 116 % WT binding.

What about the Mean % WT Binding [11] of the same substance?
The Mean % WT Binding was 117 % WT binding.

What about the Mean % WT Binding [12] of the same substance?
Its Mean % WT Binding is 102 % WT binding.

And the Mean % WT Binding [13]?
The Mean % WT Binding was 110 % WT binding.

And the Mean % WT Binding [14]?
Its Mean % WT Binding is 112 % WT binding.

What about the Mean % WT Binding [15] of the same substance?
The Mean % WT Binding was 117 % WT binding.

And the Mean % WT Binding [16]?
Its Mean % WT Binding is 120 % WT binding.

And the Mean % WT Binding [17]?
The Mean % WT Binding was 99.7 % WT binding.

And the Mean % WT Binding [18]?
The Mean % WT Binding was 98.6 % WT binding.

What about the Mean % WT Binding [19] of the same substance?
The Mean % WT Binding was 98.8 % WT binding.

And the Mean % WT Binding [20]?
The Mean % WT Binding was 120 % WT binding.

What about the Mean % WT Binding [21] of the same substance?
Its Mean % WT Binding is 100 % WT binding.

And the Mean % WT Binding [22]?
Its Mean % WT Binding is 120 % WT binding.

What about the Mean % WT Binding [23] of the same substance?
The Mean % WT Binding was 95 % WT binding.

What about the Mean % WT Binding [24] of the same substance?
Its Mean % WT Binding is 102 % WT binding.

What about the Mean % WT Binding [25] of the same substance?
Its Mean % WT Binding is 86.5 % WT binding.

And the Mean % WT Binding [26]?
The Mean % WT Binding was 106 % WT binding.

And the Mean % WT Binding [27]?
Its Mean % WT Binding is 102 % WT binding.

What about the Mean % WT Binding [28] of the same substance?
The Mean % WT Binding was 124 % WT binding.

What about the Mean % WT Binding [29] of the same substance?
The Mean % WT Binding was 140 % WT binding.

And the Mean % WT Binding [30]?
Its Mean % WT Binding is 115 % WT binding.

What about the Mean % WT Binding [31] of the same substance?
Its Mean % WT Binding is 103 % WT binding.

And the Mean % WT Binding [32]?
Its Mean % WT Binding is 128 % WT binding.

And the Mean % WT Binding [33]?
The Mean % WT Binding was 110 % WT binding.

What about the Mean % WT Binding [34] of the same substance?
Its Mean % WT Binding is 106 % WT binding.

What about the Mean % WT Binding [35] of the same substance?
Its Mean % WT Binding is 128 % WT binding.

And the Mean % WT Binding [36]?
Its Mean % WT Binding is 93.6 % WT binding.

What about the Mean % WT Binding [37] of the same substance?
Its Mean % WT Binding is 92 % WT binding.

What about the Mean % WT Binding [38] of the same substance?
The Mean % WT Binding was 103 % WT binding.

What about the Mean % WT Binding [39] of the same substance?
Its Mean % WT Binding is 96.2 % WT binding.

And the Mean % WT Binding [40]?
Its Mean % WT Binding is 93.9 % WT binding.

What about the Mean % WT Binding [41] of the same substance?
Its Mean % WT Binding is 99.8 % WT binding.

What about the Mean % WT Binding [42] of the same substance?
The Mean % WT Binding was 102 % WT binding.

What about the Mean % WT Binding [43] of the same substance?
Its Mean % WT Binding is 93.6 % WT binding.

And the Mean % WT Binding [44]?
The Mean % WT Binding was 91.1 % WT binding.

And the Mean % WT Binding [45]?
Its Mean % WT Binding is 107 % WT binding.

And the Mean % WT Binding [46]?
Its Mean % WT Binding is 109 % WT binding.

What about the Mean % WT Binding [47] of the same substance?
The Mean % WT Binding was 113 % WT binding.

What about the Mean % WT Binding [48] of the same substance?
The Mean % WT Binding was 117 % WT binding.
